{"source": "the NTF2 design screens of Basanta et al. (2020)", "data": [{"assay": "protease stability score; higher = more stable; yeast display proteolysis, trypsin and chymotrypsin;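 also: relative to predicted unfolded state with 0 unfolded-like and 1 meaning tenfold more protease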", "values": [{"sequence": "SEEEHHARYMTQLFLHALETGDWHELRRMADPNMRLRVRVGDKHWHYHGWEHLHELLESFLKRVDHVEFIERSIHVQGEKSRFRGDVREHVGDKEHTHHIILILDIVNGKIHRIIIINE", "protease stability score": 1.37}, {"sequence": "DEIEERTKELMKIDLELLETGDEETLLHLLDPHVKIITWINGRRVQRVGRHIWVHWLRYLGIDHLHVDDVEVQGDKITFDMTIEINGRTHKAVLRSQVVDGKITSLEIEVR", "protease stability score": 1.63}, {"sequence": "REEDEQLKRFTDEFIQVQRTGNEDLLREYADPNVKIVVGDKELHGREEMLYVFREIRVHNSELKRMHIIDGRAEVHVTAHVRQGDKVIEVKLHIIIYKIDGRWVIESMQWE", "protease stability score": 1.01}, {"sequence": "DEETKFLLDIFRLVLELFMTGDEDTFSRLFDPNVRNEVNGVEAIGWHQVRELIKEILKEIRIEHIHIHDVRAVGDKVHADTRTDGIINGKRQRRETHVHLETVNGRLKSIWLQIE", "protease stability score": 1.13}, {"sequence": "SDLDEEARRWLEKHLKNFFTGDWDKFMNNVDPNVRYIVGDKHKIGMESFSKDEKEHRDQYDHLEFRIHHEDTYGEKAVSDMHVTYHINGREIRRRVHLSFLVINGKIKSVRIEFE", "protease stability score": 0.469}, {"sequence": "DKEHKESTKATHDVLRSWKTGDERFREELADPNARMEFNGREHVGREFMSELLRHLWEELGVDHMELKRVIIQGDKIHIDMDLTVGDKSIHLHVTVQKINGKWIIKSIRLELT", "protease stability score": -0.192}, {"sequence": "DEDKESAERAFRILVHLWETGDEHKLERMHDPNTRYHQGDKDIHGMEKILERLSHIRIKDVKLRDIKYQGEKLEVDGEIEIEVDGRNLLLRTILFFDKVDGRWVIRSIEVR", "protease stability score": 1.52}, {"sequence": "DELHKLAEDHLEDFSRAIHTGDEDHLHHLIDPDVRYHQGDKNLHGRESWHEILERIDHVESEDVKMHRIERQGNKLIIDGEWHMRFVYNGQEKRVEMNTIVILLKVNGKWVNEAWHIR", "protease stability score": 0.463}, {"sequence": "SEEERDAKEAVHLLLDMIDTGDFERITKYMDPNTRSRVGDKNDHGRHWLRHRRRHAGHDNIHVHLTRVDIFDGVVQINGRLDVDGKEIEVHWFIRKINGRWIVEEVHIQ", "protease stability score": 0.367}, {"sequence": "DDHHELLKRMMDIIKEQFLTGDWEEHRRMADPHVKVIINGVQLIGWEHIRRFEEEMRRQWRIHHVEDKDERYFEGRAHVHSEIDGEFDGKREIHHSVIHLHVVNGRLKRLELRFE", "protease stability score": 1.28}, {"sequence": "SEERHELERTLKRYQDALITGNEEQMEKLIDPNVRTRIDGVDLIGMELVIEELVEWLDRYPNVRIHSHIHEVRFQGDKADIDSRLHLIFDGQEYRLHTRIHIWKFNGRWVLTHSEID", "protease stability score": 0.884}, {"sequence": "SEDEKWIRHAIRLLSEALETGDESMEHHLMDPNVKIRIDGVQYIGWEHWKKFVDRFDHEKIEHVHIRHIEVFNGRVDLDGFVHIILFVDGQEIRETRRTRIIVLKYNGKWLIESIEIE", "protease stability score": 2.3}, {"sequence": "TEEEEHLHTLASKDLKAFMTGDWETHKKLADPHVRFELVVGEWRLILHGRERFIEFLIEVLEKMGVDHFHLQHVEVIGNFVRLNIKIEVGDKTHDTRIDLEYINGVIHDVRVEFK", "protease stability score": 2.02}, {"sequence": "SEEERTQTLAMKIIWDVLLTGDWKELFDNMDPHARMEINGRKFHGREEIIRHLRELHNKLGIDRVESHLHSVHYVDGVIHVDIHLHYNGKDERIEIIAMKYNGRWTLTEVNYREE", "protease stability score": 2.13}, {"sequence": "TEDEEISEKAFRYLVESLETGDEETDRHLADPHVRIVFEGRSYHGREQFHEIMSHIRVHHVEIRDVRVQGNKVDWDTQSKVEFNGRKYWVQTRIIVLKVDGRWILHSYILK", "protease stability score": 0.708}, {"sequence": "DKREEELHWAVELLIDIFRTGDERLLIELIDPHARSEVGDKTLHGRQHAEVEHRDWGLDRVETHIHDYKVQGNKLHLDMSTVVNGKDIKISFIAEKYNGRWHLKRIIIR", "protease stability score": 1.27}, {"sequence": "DEDKEHIDRSLEELRRSWKTGNEEDVLRLADPHVKMIYNGRHHIGRENFEEALKILLERVDHWEDFRITDRHRQGDKVELDVESEGLVNGVTKRTEMIFIILKIDGRWLLHSLEIR", "protease stability score": 0.724}, {"sequence": "DEEDKWDELLLEILIRIEKTGDEEKWLRFLDPHVRLDVDGQEVHGREEVVRVQKEWKERLGVKHIVIKRTKVVNGRIDMDKVMNVDGVNIKVHYHYHLVNGVLHEVEVRLE", "protease stability score": 0.992}, {"sequence": "DDHEKLSEEHMRFIRHAIKTGDEETLKELADPDMRINVNGRLFHGWEHFFKIWEHIRRHLRFKDYDIHDFEIYGDKIHADTRVKSRVNGVERIITTEVLIMKVDGRWYNHEVRLH", "protease stability score": 0.71}, {"sequence": "TEEEEHTDMVRRIWVEIAKTGDERSWEKYFDPNARMHIFFNGQEIELHGRETITKWLHETLTRIKGLRMEIEHFENIGDKVHMDTRFIIGDKERKSEVEIIVVDGRLKSVTIRHR", "protease stability score": 1.78}, {"sequence": "REQEELMREYYEIHTHVLKTGNEDALEKLLDPNVRIHIDGKELHGMEAWEILNKRFDHIRHSHIHDFRIIGDKLHIDGRQKGVVDGVEREVHVHIVIEKIDGRWKLKSFYFR", "protease stability score": 1.2}, {"sequence": "DETERDVREAVRIWNEDVETGNEESLLRLIDPHVRLVINGQTFHGMESMLEVLNEFLKHIRVEHIEVKRIEIQGDKAIIDTNMDIEIDGKRKQKKTTLIIRKFNGRWHLSLVEIR", "protease stability score": 1.86}, {"sequence": "REEEKIYHHLTEMWYEMLHTGNEEERERLFDPNTRVNIGDYHFHGREKLLEAYRRWRHMLGIKHYEVDRVEVIGDKVFSQGHSKAENHRLDVRIVIVVWNGRLKETSVDIH", "protease stability score": 1.04}, {"sequence": "DEEHEDAVRIWEEFLEAVITGDWDRLKTLLDPNVRLHQGDFEIHGREKIVKTIHEMRIHIHDHRFRDSHFINGRVKLHVESDKEIIYGNKKTRLTVHVTVIIHKVNGVWLVHSVHVE", "protease stability score": 0.986}, {"sequence": "HENEEAAEHIFELFLDSLRTGDPDVVERLLDPHVKLDINGVEFHGREEAVHILMEEWKRLGIDHFEIKRIELRVYNGVVHIEIDSRTQVNGQKHHTKYRIIVIKINGRWHVNLLYIYIE", "protease stability score": 2.12}, {"sequence": "TKEEDLMELALRIIERVNETGDEQELHDRLDPHTQIEIGDKNEHGWEHIVHVMRHIRIEQIRFRDRRVQGDKVHVFVESEIRVGEKQLHVKVDIYVWKFDGRWIMTRMRVE", "protease stability score": 1.33}, {"sequence": "TTEHAATLFLTSMITGDWEWISRLFDPHVRLVFNGVTNVGRELAIHKLVETVLKLGVKHTHIDEMRLYGDKVEVHVTLRVGDKTTNIDIEVDWVDGQVKEVHIDTRTEDTSKILKHVYK", "protease stability score": 0.109}, {"sequence": "DEDRKNEEIAEKIQLRVLKTGDEDELHHLVDPNVKLHIDGREFHGMELSTHLLSRWHEKYKGLKWRLRDSQSQGDFVIIHFHVHVNGKRLRFVVIARKVDGRWVVEEIELE", "protease stability score": 1.4}, {"sequence": "HEVERIVEESDRHLLNSMLTGNEDELWRLLDPNARLDINGVQSIGRDEAYRVFHELLNHLRLREVDVHEMDVQGDKAHLTFKFNGDFNGKRDYLDFQVNSLKINGRWFLHSSSLI", "protease stability score": 0.529}, {"sequence": "DDSEHWARRFIHLLKRSLETGDEHLNKELADPHARIEVNGRELHGREDFSETLVRMGFNHVHITDFDVQGDKIELHIETDVGDKKIQVEFIVEKVNGRWLNRSMHIRIH", "protease stability score": 0.832}, {"sequence": "DEEDEASHLALRLLEFTMKTGDERVSKENFDPNVRIEINGVDLHGWEHLTRILREIRIHDVRIEHSEVQGEKLILHGRMHWRVNGRDIEVETQVHAIKVDGKWRTKRIHFD", "protease stability score": 1.49}, {"sequence": "SEIEEQVEEAYRLILEMLHTGDEHTMHELIDPHVRHRIDGQTYHGREFLIKWLVKLREDWGVEKISVKLKFITIIGDFALVVVDIHINGVKLKNHTLATKVNGRWRDHTVNIEHI", "protease stability score": 0.637}, {"sequence": "DEERKFLKKMHEILDKSERTGNEEDIMRLVDPEVRLTVGDKELHGWSAMHEYFKRWIDKFPGVRVHFELNDITIVDGRILNIVHTKFEFDGREFQLTATIFAHKYDGRWTLTSMRYE", "protease stability score": 1.09}, {"sequence": "SEHEEHVRSAIERLSHAWRTGNEELFKELVDPHTRFIYGNKNMHGWEISEFFRRRVKGMTLHEVDIHHVEVINGRVHVNSILRGEINGKDTFEDHELHARKVDGRWVVTEMTIR", "protease stability score": 0.732}, {"sequence": "SENHRNLLEWARIALEALITGDWKMLLDLLDPNVRFIFNGVHLHGMEHVFHRMTREIKEIRIKFEVHDMRSIGEKVEMDTRRHVEVNGVETTIDTRVHVVVIDGVIHEIRIEHR", "protease stability score": 1.1}, {"sequence": "DEEERHVQTLYEIFLKLEITGNEHAIKRLLDPHTRLHINGREHHGREEVVEAVRFWLTEWRIHHFKIHNREVQGDKMYMDTRLEVEFNGVNEEVHMIIIMQKIDGRWILRRIEIE", "protease stability score": 2.25}, {"sequence": "SEEEHLLKFFLDVLMDLHSTGDERKLYELFDPNVRIEYDGKETHGRERAREQFQEMRVRVEHVHIKDLTLQGDKVIIDTKVDMTIHIDGKTIREDRKLQVDFDKVDGRWTVHELIFR", "protease stability score": 1.13}, {"sequence": "SEDEHAVRELIELESHAWRTGDEDTLRRLIDPHTRVEQGDFIFHGREEWEKFVKRLLRHMRIEDIFIHHVRVQGDKVDTDSRLLVLFEGRREHVEVDLIILKIDGRWVISQIIIK", "protease stability score": 1.39}, {"sequence": "TEEEELAHEALRRFTREWVTGDEDLLQNLLDPHTKIEIDGRELHGWHEMVRYYRHLGFDVNEFHLHRFHIQGDKIRVDGELRFHVDGRTHTIRFTIVARKVNGKWLNTHEHYK", "protease stability score": 0.721}, {"sequence": "DESAVNNLVRLAKAWLRGDPKKIEHLVDKDAKAQIGDKTLHGREDLKDHADELRKDMTVDVKSVTNNNQNGQAVVDVKFEADRNGRPETHTLDAKATAHNGDIVDVKIHQDG", "protease stability score": -0.049}, {"sequence": "SEEEEMVKRLVEIIARMLETGDEDTLLELLDPEPRIEIGDKRFHGWEEFHKEEHKRLREMRVNSTHIEDVKVYNGRARIHLRIDGSIDGRRIEMRSHFIVQKINGRWSITSVIIR", "protease stability score": 1.52}, {"sequence": "DEDERHARKVLELWLQSLLTGDEELTDHLLDPRVKILVDGVELHGREHARMFHRHIHMRIDHMKDFHIHSFTSVGDKVHVDIRIHFRQGDKEYRLNQRTLILKVNGRWVIEKIEVD", "protease stability score": 2.22}, {"sequence": "DEEHEHLKELARLILKWWYTGDEQHMLELADPNVRSHVNGVHLVGREEMMKVWVEVLEFLGADHVEDKRSSIQGDKTILHTSHHVNGKEIEVDVDIRIVDGKDHTLEFRIK", "protease stability score": 1.44}, {"sequence": "HEEEELARKLVEILLNLLLTGDEDVIRHLLDPNARIHIDGQDNVGREEVIRVWRHWLEKFGIDHIEINRIHYQGEWLHIIGLVKVNGRERPLHIHLNVINGRLKHSEFRIR", "protease stability score": 1.48}, {"sequence": "DRDDEMTERALKEHIKNFRTGDFDKLLELADPNVRVDIDGREIHGRENFVKLVLKLMDDLGMKPEDVWVEHVNVFNGKVHMRIVLVTFYGDKRHINDTNVIATKFDGRWILKDVTMV", "protease stability score": 1.08}, {"sequence": "EEDREWVERIIRHYREAELTGDEDRMKELVDPNTRFHIDGVVYHGMDEWTRYVRELRMRSRTRVHQVRVIDGRIEADFEYEIHIEINGVQIDRRQEVILIFKKVNGKWIVERVIVV", "protease stability score": 1.93}, {"sequence": "SEEDRDLHESAKLSEEIEDTGDEHMIHKQADPNVRLDYNGREFHGREMFSKMMIEWFTKLGVDHVHRKEMRIQGDWIHLHFEVRVGDKRHEVHVVALKVNGRWLHHSFEVHER", "protease stability score": 1.16}, {"sequence": "SEHEREAREHMEIFRRAFRTGDEQFLTELADPNVRVDVNGVELHGRENFLRVMRHIRFKDIRIKRSREINGVLFIDVRERGIVNGQETTFESEIIILKVDGRWIIEELIIL", "protease stability score": 1.39}, {"sequence": "DEEEKIVEDAIRVWRRVLMTGDEEASRDLMDPNYKLVVGDKEYHGREEIVTYFKILVEHIRIDDFDVRHIRVQGDKIDINSEINGTIDGRHKRLEVTIHAHKFDGRWHLTEIIIH", "protease stability score": 0.811}, {"sequence": "DEKTEKEQRWFEEILHAILTGDEEFLLRNADPNTRSHFNGRDVHGMELLSEIWTKHVEDLGFDHAHIRSVKVFDGRFILNMQIHVNGVELDVHLIYDVVDGVVKRVIVETHKH", "protease stability score": 0.442}]}]}
